Data on 5 molecules can be found in publication PMC10053787, “A New Gene SCY3 Homologous to Scygonadin Showing Antibacterial Activity and a Potential Role in the Sperm Acrosome Reaction of Scylla paramamosain” (International Journal of Molecular Sciences, 2023).

The target in assay [1] is Recombinant His-tagged SCY2 (Scylla paramamosain). Kind of assay: SPR; Biacore T200, CM5 chip; rSCY1-4 immobilised (~200 resonance units), blank or rTrx reference cell; rSCY1-5 diluted in PBS and injected (28.8 to 0.45 µM), multiple cycle kinetics, 25 °C, 120-s association and 120-s dissociation.
Assay [2] deals with Recombinant His-tagged SCY1 (Scylla paramamosain). Described as above.
Another assay has as its target T1, rSCY5.
T1 construct: gene SCY5; biotinylated for BLI
Kind of assay: biolayer interferometry (Octet). The format is binding, Scylla paramamosain. The following applies: biotinylated protein on Super Streptavidin sensor; progesterone 0.125-4 mM; phosphate-saline buffer pH 7.4, 0.02% Tween 20; room temperature.

Another assay has as its target T2, rSCY4.
T2 construct: gene SCY4; biotinylated for BLI
Put plainly: biolayer interferometry (Octet). The format is binding, Scylla paramamosain. The following applies: biotinylated protein on Super Streptavidin sensor; progesterone 0.125-4 mM; phosphate-saline buffer pH 7.4, 0.02% Tween 20; room temperature.

Another assay addresses T3, rSCY3 (Scylla paramamosain, UniProt A0AAW0UC28).
T3 construct: gene O3P69_004699; precursor printed as 124 aa; biotinylated for BLI
T3 sequence (A0AAW0UC28 11-110): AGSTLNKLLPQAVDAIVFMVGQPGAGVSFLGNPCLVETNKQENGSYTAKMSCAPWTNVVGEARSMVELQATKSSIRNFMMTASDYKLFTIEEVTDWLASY
Put plainly: biolayer interferometry (Octet). The format is binding. The note with it: biotinylated protein on Super Streptavidin sensor; progesterone 0.125-4 mM; phosphate-saline buffer pH 7.4, 0.02% Tween 20; room temperature.

Consider “Recombinant His-tagged SCY4 (natural protein)”, for which the dissociation constant (Kd) turned out to be 14 µM in assay [1] and 6.86 µM in assay [2].
Consider “Recombinant His-tagged SCY2 (natural protein)”, for which the Kd in assay [2] is 11.3 µM.
For the molecule “Recombinant Trx-tagged SCY5 (natural protein)”, the Kd in assay [1] worked out at 0.15 µM; in assay [2], 0.14 µM.
Turning to `CC(=O)[C@H]1CC[C@H]2[C@@H]3CCC4=CC(=O)CC[C@]4(C)[C@H]3CC[C@]12C` [progesterone], the Kd on rSCY5 is 25300 µM; on rSCY4 it was 2280 µM; on rSCY3 it was 30800 µM.
Take “Recombinant His-tagged SCY3 (natural protein)”: the dissociation constant Kd turned out to be 0.62 µM in assay [1] and 4.12 µM in assay [2].
